Several values for one entry are separate records, joined by “and”; a condition that tells them apart may be missing. Equal values may be shown once. Read-outs that look alike come from different tables or passages of the source.
Columns and labels:
Assay in all cases: native MS
[1] = biological target: cpTMV without any mutation at the S65 position (tobacco mosaic virus)
[2] = biological target: cpTMV-S65-3NY (tobacco mosaic virus)
[3] = biological target: cpTMV-S65-3NY (tobacco mosaic virus); remark: listed apart in the source
[4] = biological target: cpTMV-S65-pAF (tobacco mosaic virus)
[5] = biological target: cpTMV-S65C (tobacco mosaic virus)

cpTMV without any mutation at the S65 position
monomers per disk (monomers per disk) [1]: 16

cpTMV-S65-3NY
monomers per disk (monomers per disk) [2]: 16 | monomers per disk (monomers per disk) [3]: 17

cpTMV-S65-pAF
monomers per disk (two-disk stack) (monomers per disk) [4]: 16 and 17

cpTMV-S65C
monomers per disk (monomers per disk) [5]: 16

Source: article PMC10395586
